One block for each molecule: values may come before it.
Legend:
pErbB1 in NCI-ADRr cells = assay: ErbB1 phosphorylation dose response curves for ErbB ligands (ELISA); type: cell-based, human
Method: (§1) For stimulation of the cells, the cells are seeded in […] at 35,000 cells per well in 96 well tissue culture plates and incubated overnight in a humidified atmosphere of 5% CO2, 95% air and 37 degrees Celsius. Cells are then switched to serum free media: RPMI-1640 media (Gibco) supplemented with, 2 mM L-glutamine (Gibco) and units/mL Pen-Strep (Gibco). Starved cells are incubated in a humidified atmosphere of 5% CO2, 95% air and 37 degrees Celsius for 20-24 hours prior to stimulation.
(§2) Levels of protein phosphorylation in the stimulated cells are measured by ELISA. Capture antibodies against ErbB1 (R&D Systems, AF231), ErbB2 (R&D Systems, MAB1129), ErbB3 (R&D Systems, MAB3481) and AKT (Upstate, 05-591MG) are incubated in 384 well black flat-bottom polystyrene high-binding plates (Corning, Catalog #3708) overnight at room temperature. The ELISA plates are blocked with 2% bovine serum albumin (BSA) and phosphate buffered saline (PBS) for one hour then incubated with lysates diluted in 2% BSA, 0.1% Tween-20 and PBS for two hours at room temp. In between each incubation, the plates are washed three times with 0.05% Tween-20 in PBS. ELISAs for measuring phospho-ErbB1, -ErbB2 and -ErbB3 are incubated with phospho-tyrosine horseradish peroxidase (HRP) linked monoclonal antibody (R&D Systems, HAM1676) for two hours. ELISAs measuring phospho-AKT are incubated with primary serine 473 specific anti-phospho AKT mouse monoclonal antibody (Cell Signaling Technologies, Catalog #5102) for 2 hours, then incubated with Streptavidin-HRP (R&D Systems, Catalog # DY998,) for 30 minutes. All ELISAs are visualized with SuperSignal ELISA Pico Chemiluminescent Substrate (Pierce, Catalog #37069) and luminescent signal is measured using a luminometer.

pErbB2 in NCI-ADRr cells = assay: ErbB2 phosphorylation dose response curves for ErbB ligands (ELISA); type: cell-based, human
Method: as §1, §2

pErbB3 in NCI-ADRr cells = assay: ErbB3 phosphorylation dose response curves for ErbB ligands (ELISA); type: cell-based, human
Method: as §1, §2

pAKT in NCI-ADRr cells = assay: AKT phosphorylation dose response curves for ErbB ligands (ELISA); type: cell-based, human
Method: as §1, §2

ErbB1 (E1) = ErbB1 (E1) (Homo sapiens, UniProt P00533); assay: ErbB computational model: BTC ligand binding rate parameters
Source text: (§3) The ErbB receptor signaling network model consists of three receptors (ErbB1, ErbB2, ErbB3), a receptor phosphatase, phosphatidylinositol 3-kinase (PI3K, which binds the receptors) and components of the PI3K-AKT cascade (phosphatidylinositol bisphosphate, PIP2, phosphoinositide-dependent protein kinase, PDK1, PTEN deleted from chromosome 10, PTEN, serine, threonine protein kinase also known as protein kinase B, AKT, Protein phosphatase 2A, PP2A) (see Table 8 below).
(§4) Many of the reaction rate parameters are unknown in the cell system we studied and therefore had to be estimated (see Table 10 below). To avoid biasing the starting point, all parameters were set to default values (Aldridge, B. B. et al. (2006) Nat. Cell. Biol. 8:1195-1203). The number of parameters estimated was limited by performing the estimation in two stages: first the model was calibrated against the experimentally observed ErbB receptor phosphorylation data; second, the parameters sensitive to AKT phosphorylation were optimized against the experimental data. Estimated values were only accepted if the parameters were constrained under multiple parameter runs using a genetic algorithm with a population size of 50 and 25 generations (Mathworks, Mass.). […] The normalized sensitivities of each species were integrated over the two hour stimulation, and parameters with normalized, integrated sensitivities greater than an arbitrary threshold of 1000 are listed in Table 11 below. As mentioned above, ErbB4 phosphorylation was not included into the parameter estimation because the cell line studied had barely detectable ErbB4 (see Table 3 below). ErbB4 reactions are parameterized according to ErbB3 reactions.

ErbB3 (E3) = ErbB3 (E3) (Homo sapiens, UniProt P21860); assay: ErbB computational model: HRG ligand binding rate parameters
Source text: as §3, §4

[1] = tested on: MALME3M xenograft tumor model; assay: Xenograft efficacy study with Ab #6, MALME3M model; type: in vivo, mouse
Source text: (§5) In this example, four xenograft tumor models were used to identify tumor cell lines that responded to treatment with the anti-ErbB3 antibody Ab #6. The four xenograft tumor models studied represent different indications: MALME3M (melanoma cancer line; ATCC No. HTB-64), ADRr (ovarian cancer cell line; NCI-60, cosmic sample ID No. 905987), ACHN (renal cancer cell line; ATCC No. CRL-1611) and DU145 (prostate cancer cell line; ATCC No. HTB-81).
(§6) In the xenograft tumor models, mice (nu/nu mice: 3-4 week old female mice, T-cell deficient; outbred; Albino background; from Charles River Labs, Wilmington, Mass.) are implanted in the right flank with 3.5×10^6-3×10^8 cells/mouse (depending on cell line) in 200 μl via subcutaneous injection. Mice are monitored for initial tumor growth. Tumor cells are allowed to grow for several days until the tumor volume is approximately 200 mm^3. The tumor volume is calculated as V=(π/6 (L×W^2). The mice are treated with the Ab #6 antibody at a dosage of 600 μg/injection every 3 days (qd3). Control mice are treated with phosphate buffered saline (PBS).
(§7) Tumor volume is measured for 60-80 days.
(§8) As a measure of responsiveness of the tumor to Ab #6, the exponential growth rate is determined, which described the experimental data best. The following formula is used to describe the exponential growth. […]

[2] = tested on: DU145 xenograft tumor model; assay: Xenograft efficacy study with Ab #6, DU145 model; type: in vivo, mouse
Source text: as §5, §6, §7, §8

[3] = tested on: ADRr xenograft tumor model; assay: Xenograft efficacy study with Ab #6, ADRr model; type: in vivo, mouse
Source text: as §5, §6, §7, §8

[4] = tested on: ACHN xenograft tumor model; assay: Xenograft efficacy study with Ab #6, ACHN model; type: in vivo, mouse
Source text: as §5, §6, §7, §8

[5] = tested on: IGROV1 xenograft tumor model; assay: Xenograft study with Ab #6 (predicted set), IGROV1; type: in vivo, mouse
Method: as §6
(§9) To test these model predictions, three additional in vivo xenograft studies were performed. The IGROV1, OVCAR8 and SKOV3 cell lines were used in xenograft studies conducted as described in Example 1, wherein mice were treated with 600 μg of Ab #6 every 3 days or with PBS as a control. The xenograft responses, as determined by changes in tumor volume (in mm^3) over time, are summarized in the graphs of FIGS. 9A-9C. Again, the Growth Rate Reduction (GRR) value for each cell line was calculated using the following formula:
(§10) Growth Rate Reduction=1−(Ab #6 Growth Rate)/(PBS Growth Rate)

[6] = tested on: OVCAR8 xenograft tumor model; assay: Xenograft study with Ab #6 (predicted set), OVCAR8; type: in vivo, mouse
Method: as §6, §9, §10

[7] = tested on: SKOV3 xenograft tumor model; assay: Xenograft study with Ab #6 (predicted set), SKOV3; type: in vivo, mouse
Method: as §6, §9, §10

ErbB3 = ErbB3 (Homo sapiens, UniProt P21860); assay: Ab #6 rate constants measured by Kinexa (inhibitor parameter values); type: binding
[8] = estimated using known Kds and initial dose response curves
[9] = Ab #6 600 μg/injection every 3 days vs PBS, negative GRR set to zero
[10] = Ab #6 600 μg/injection every 3 days vs PBS
[11] = 600 μg of Ab #6 every 3 days vs PBS

EC50 (pErbB1 in NCI-ADRr cells): 37 nM
EC50 (pErbB3 in NCI-ADRr cells): 380 nM
Molecule: AR: ErbB ligand amphiregulin
pErbB1 % stimulation at 5 min relative to maximum (pErbB1 in NCI-ADRr cells): 95.0%
pErbB2 % stimulation at 5 min relative to maximum (pErbB2 in NCI-ADRr cells): 54.0%
pErbB3 % stimulation at 5 min relative to maximum (pErbB3 in NCI-ADRr cells): 17.0%
pAKT % stimulation at 5 min relative to maximum (pAKT in NCI-ADRr cells): 28.0%

EC50 (pErbB1 in NCI-ADRr cells): 5.7 nM
EC50 (pErbB3 in NCI-ADRr cells): 100 nM
forward binding rate (ErbB1 (E1); [8]): ~100000 M⁻¹ s⁻¹
kf3: BTC binding to E1 (ErbB1 (E1); model parameter): 5.00 × 10^−11 molecules−1 sec−1
kf4: BTC binding to E1 homodimers (ErbB1 (E1); model parameter): 5.00 × 10^−11 molecules−1 sec−1
kf5: BTC binding to E1 heterodimers (ErbB1 (E1); model parameter): 5.00 × 10^−11 molecules−1 sec−1
kr3: BTC dissociation from E1 (ErbB1 (E1); model parameter): 0.001 s⁻¹
kf129: BTC binding in the endosome (ErbB1 (E1); model parameter, endosome): 3.8 molecules−1 sec−1
Molecule: BTC: ErbB ligand betacellulin, binds primarily to ErbB1

Molecule: Epiregulin: ErbB ligand epiregulin
pErbB1 % stimulation at 5 min relative to maximum (pErbB1 in NCI-ADRr cells): 9.0%
pErbB2 % stimulation at 5 min relative to maximum (pErbB2 in NCI-ADRr cells): 18.0%
pAKT % stimulation at 5 min relative to maximum (pAKT in NCI-ADRr cells): 11.0%

EC50 (pErbB1 in NCI-ADRr cells): 21 nM
EC50 (pErbB2 in NCI-ADRr cells): 230 nM
Molecule: HB-EGF: ErbB ligand, heparin-binding epidermal growth factor
pErbB1 % stimulation at 5 min relative to maximum (pErbB1 in NCI-ADRr cells): 87.0%
pErbB2 % stimulation at 5 min relative to maximum (pErbB2 in NCI-ADRr cells): 94.0%
pErbB3 % stimulation at 5 min relative to maximum (pErbB3 in NCI-ADRr cells): 32.0%
pAKT % stimulation at 5 min relative to maximum (pAKT in NCI-ADRr cells): 20.0%

EC50 (pErbB2 in NCI-ADRr cells): 7 nM
EC50 (pErbB3 in NCI-ADRr cells): 9.9 nM
EC50 (pAKT in NCI-ADRr cells): 1.9 nM
forward binding rate (ErbB3 (E3); [8]): ~100000 M⁻¹ s⁻¹
kf2: HRG binding to E3:E2 dimers (ErbB3 (E3); model parameter): 5.00 × 10^−11 molecules−1 sec−1
kr1: HRG dissociation from E3 (ErbB3 (E3); model parameter): 0.001 s⁻¹
kf127: HRG binding in the endosome (ErbB3 (E3); model parameter, endosome): 3.8 molecules−1 sec−1
kf1: HRG binding to E3 or E4 (ErbB3 (E3); model parameter, unit conversion from 1e5 M−1s−1/(Vmedia*Av/Num_cells)): 5.00 × 10^−11 molecules−1 sec−1
Molecule: HRG1-β: ErbB ligand heregulin, binds to ErbB3 and ErbB4
pErbB1 % stimulation at 5 min relative to maximum (pErbB1 in NCI-ADRr cells): 0.0%
pErbB2 % stimulation at 5 min relative to maximum (pErbB2 in NCI-ADRr cells): 43.0%
pErbB3 % stimulation at 5 min relative to maximum (pErbB3 in NCI-ADRr cells): 100.0%
pAKT % stimulation at 5 min relative to maximum (pAKT in NCI-ADRr cells): 100.0%
kr2: HRG dissociation from E3:E2 dimers (ErbB3 (E3); model parameter): 0.001 s⁻¹

EC50 (pErbB1 in NCI-ADRr cells): 30 nM
Molecule: TGFα: ErbB ligand, transforming growth factor alpha

kf Ab #6 _2: Ab #6 inhibitor binding to a second ErbB3 (ErbB3; avidity due to volume reduction (Vmedia/Numcells)/Vshell): 4.96E−05 molecules^−1 sec^−1
kf Ab #6 _1: Ab #6 inhibitor binding to ErbB3 (ErbB3; unit conversion of on-rate/(Vmedia*Av/Num_cells), Num_cells = 30,000 per well): 7.15E−11 molecules^−1 sec^−1
B1: Ab #6: anti-ErbB3 antibody described in WO 2008/100624, VH and VL sequences of SEQ ID NOs: 1 and 2 (antibody, V domains shown)
VH: EVQLLESGGGLVQPGGSLRLSCAASGFTFSHYVMAWVRQAPGKGLEWVSSISSSGGWTLYADSVKGRFTISRDNSKNTLYLQMNSLRAEDTAVYYCTRGLKMATIFDYWGQGTLVTVSS
VL: QSALTQPASVSGSPGQSITISCTGTSSDVGSYNVVSWYQQHPGKAPKLIIYEVSQRPSGVSNRFSGSKSGNTASLTISGLQTEDEADYYCCSYAGSSIFVIFGGGTKVTVL
GRR [%] (Tumor Growth Rate Reduction) [1, 9]: 0%
effect of antibody treatment on tumor growth ([1]; compared to PBS control): did not inhibit tumor growth
GRR [%] (Tumor Growth Rate Reduction) [2, 10]: 72.6%
effect of antibody treatment on tumor growth ([2]; compared to PBS control): inhibited tumor growth
GRR [%] (Tumor Growth Rate Reduction) [3, 9]: 0%
effect of antibody treatment on tumor growth ([3]; compared to PBS control): did not inhibit tumor growth
GRR [%] (Tumor Growth Rate Reduction) [4, 10]: 28.0%
effect of antibody treatment on tumor growth ([4]; compared to PBS control): inhibited tumor growth
experimentally observed responsiveness based on GRR value [5]: non-responder
GRR [%] (Tumor Growth Rate Reduction) [5, 11]: 6.3%
experimentally observed responsiveness based on GRR value [6]: responders
GRR [%] (Tumor Growth Rate Reduction) [6, 11]: 91.4%
experimentally observed responsiveness based on GRR value [7]: responders
GRR [%] (Tumor Growth Rate Reduction) [7, 11]: 19.6%
Ab #6 on-rate for binding to ErbB3 before unit conversion (ErbB3): calculated as 1.43e5 M^−1s^−1/(Vmedia*Av/Num_cells).

B2: Epigen: ErbB ligand epigen (protein, UniProt Q6UW88 23-154, looked up)
Epigen: AAVTVTPPITAQQGNWTVNKTEADNIEGPIALKFSHLCLEDHNSYCINGACAFHHELEKAICRCFTGYTGERCEHLTLTSYAVDSYEKYIAIGIGVGLLLSGFLVIFYCYIRKRCLKLKSPYNVCSGERRPL
pErbB1 % stimulation at 5 min relative to maximum (pErbB1 in NCI-ADRr cells): 12.0%
pErbB2 % stimulation at 5 min relative to maximum (pErbB2 in NCI-ADRr cells): 25.0%
pErbB3 % stimulation at 5 min relative to maximum (pErbB3 in NCI-ADRr cells): 3.0%
pAKT % stimulation at 5 min relative to maximum (pAKT in NCI-ADRr cells): 11.0%
